According to patent publication US20090280056A1 (Genentech, published 2009):
Each block holds one binder with its values, some of them ahead of it.

Key:
[1] = target: T1, human STEAP-1 (human, UniProt Q9UHE8 1-339); test: Scatchard analysis on 293 STEAP-1 NT LB50 cells
T1 construct: also called Six Transmembrane Epithelial Antigen of the Prostate

[2] = target: T1, human STEAP-1; test: Scatchard analysis; the sentence names no reference (the preceding sentences compare with chimeric 120 IgG)
Source text: (§1) IgG Production and Affinity Determination -IgG was purified with Protein G affinity chromatography.
Although the 120-graft IgG bound specifically to the STEAP-1 expressing cells, the FACS signal observed for the 120-graft IgG was smaller than that observed for the chimeric 120 IgG indicating a loss in binding affinity. Phage displaying the 120-graft Fab also generated a FACS signal that was only observed on STEAP-1 expressing cells. This shift was less than that observed for the chimeric 120 IgG.

[3] = target: T1, human STEAP-1; test: Scatchard analysis on 293-LB50 cells (exogenous STEAP-1), average
Source text: (§2) JgG was purified with Protein G affinity chromatography.

[4] = target: T1, human STEAP-1; test: Scatchard analysis on LNCaP.BR cells (endogenous STEAP-1), Assay 733; displacement plot 25E and Scatchard plot 25F
Source text: as §2

[5] = target: T1, human STEAP-1; test: Scatchard analysis on 293.LB50 cells (exogenous STEAP-1), Assay 736; displacement plot 26G and Scatchard plot 26H
Source text: as §2

[6] = target: T1, human STEAP-1; test: Scatchard analysis on LNCaP.BR cells (endogenous STEAP-1), Assay 734; displacement plot 25G and Scatchard plot 25H
Source text: as §2

[7] = target: T1, human STEAP-1; test: Scatchard analysis on 293.LB50 cells (exogenous STEAP-1), Assay 735; displacement plot 26E and Scatchard plot 26F
Source text: as §2

[8] = target: T1, human STEAP-1; test: Scatchard analysis on LNCaP-BR cells (endogenous STEAP-1), average
Source text: as §2

[9] = target: T1, human STEAP-1; test: Scatchard analysis on 293-LB50 and LNCaP.BR cells
Source text: as §2

[10] = target: T1, human STEAP-1; test: Scatchard analysis on 293.LB50 cells (exogenous STEAP-1)
Source text: as §1
When expressed as an IgG, 120.v24 produced a similar FACS shift to the chimeric 120 antibody at all concentrations tested.

[11] = target: T2, cynomolgus monkey STEAP-1 (cynomolgus monkey, UniProt Q9UHE8 1-339 (human entry)); test: FACS on cells expressing cynomolgus STEAP-1 (panel title CYNO, cell line not named), PE detection
T2 construct: The cells carrying cyno STEAP-1 are not described; also called cyno STEAP-1

[12] = target: T3, mouse STEAP-1 (mouse, UniProt Q9CWR7 1-339); test: FACS on cells expressing mouse STEAP-1 (panel title MOUSE, cell line not named), PE detection; key in Figure 7A: hu 24-67
T3 construct: The cells carrying mouse STEAP-1 are not described in the text; also called STEAP-1 from mouse

[13] = target: T1, human STEAP-1; test: Scatchard analysis on 293 cells transiently expressing human Steap1
Source text: as §2

[14] = target: T1, human STEAP-1; test: Scatchard analysis on 293.LB50 cells (exogenous STEAP-1), Assay 738; displacement plot 26C and Scatchard plot 26D
Source text: as §2

[15] = target: T2, cynomolgus monkey STEAP-1; test: Scatchard analysis on 293 cells transiently expressing cyno Steap1; side note: Same Affinity for human & cyno
[16] = target: T1, human STEAP-1; test: Scatchard analysis on 293.LB50 cells (exogenous STEAP-1), Assay 737; displacement plot 26A and Scatchard plot 26B
Source text: as §2

[17] = target: T1, human STEAP-1; test: Scatchard analysis on LNCaP.BR cells (endogenous STEAP-1), Assay 739; displacement plot 25A and Scatchard plot 25B
Source text: as §2

[18] = target: T1, human STEAP-1; test: Scatchard analysis on LNCaP.BR cells (endogenous STEAP-1), Assay 740; displacement plot 25C and Scatchard plot 25D
Source text: as §2

[19] = target: T3, mouse STEAP-1; test: FACS on cells expressing mouse STEAP-1 (panel title MOUSE, cell line not named), PE detection; key in Figure 7A: 120
[20] = target: T1, human STEAP-1; test: Scatchard analysis on LNCaP-BR cells (endogenous STEAP-1)
[21] = target: T1, human STEAP-1; test: Scatchard analysis on PC3-PS5.4 cells (exogenous STEAP-1)
[22] = target: T3, mouse STEAP-1; test: FACS on cells expressing mouse STEAP-1 (panel title MOUSE, cell line not named), PE detection; key in Figure 7A: 120 chi

T1 sequence (Q9UHE8 other isoform, or with tags, fused parts or gaps): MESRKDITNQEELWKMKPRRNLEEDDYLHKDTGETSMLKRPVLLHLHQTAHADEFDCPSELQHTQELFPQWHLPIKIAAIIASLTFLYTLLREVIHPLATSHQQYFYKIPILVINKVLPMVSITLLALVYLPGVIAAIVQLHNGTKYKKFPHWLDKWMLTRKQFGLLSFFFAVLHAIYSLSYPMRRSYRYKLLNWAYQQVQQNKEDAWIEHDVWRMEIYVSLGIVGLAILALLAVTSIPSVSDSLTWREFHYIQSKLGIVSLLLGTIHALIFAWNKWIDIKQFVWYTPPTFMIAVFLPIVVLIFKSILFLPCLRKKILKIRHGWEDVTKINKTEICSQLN
T3 sequence (Q9CWR7 other isoform, or with tags, fused parts or gaps): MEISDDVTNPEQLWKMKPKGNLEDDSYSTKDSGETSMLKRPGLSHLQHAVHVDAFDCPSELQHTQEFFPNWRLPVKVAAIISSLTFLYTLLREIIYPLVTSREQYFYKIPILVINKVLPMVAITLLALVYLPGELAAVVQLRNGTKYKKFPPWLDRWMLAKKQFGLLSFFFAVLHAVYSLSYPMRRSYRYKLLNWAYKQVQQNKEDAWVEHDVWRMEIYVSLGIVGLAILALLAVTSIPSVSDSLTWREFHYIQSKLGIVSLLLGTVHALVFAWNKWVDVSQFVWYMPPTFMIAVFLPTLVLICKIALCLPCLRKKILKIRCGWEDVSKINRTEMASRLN
T2 sequence (Q9UHE8 other isoform, or with tags, fused parts or gaps): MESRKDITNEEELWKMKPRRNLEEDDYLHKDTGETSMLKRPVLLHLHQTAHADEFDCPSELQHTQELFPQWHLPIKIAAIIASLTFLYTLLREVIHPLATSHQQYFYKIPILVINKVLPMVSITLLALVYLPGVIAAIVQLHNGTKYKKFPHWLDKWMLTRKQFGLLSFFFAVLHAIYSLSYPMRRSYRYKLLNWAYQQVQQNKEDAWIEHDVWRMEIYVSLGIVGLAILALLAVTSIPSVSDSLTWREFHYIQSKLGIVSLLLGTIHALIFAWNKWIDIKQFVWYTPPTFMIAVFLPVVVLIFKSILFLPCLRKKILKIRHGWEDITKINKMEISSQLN

B1: 120 graft IgG (antibody, V domains shown)
VH: EVQLVESGGGLVQPGGSLRLSCAASGYSITSDYAWNWVRQAPGKGLEWVGYISNSGSTSYNPSLKSRFTISRDNSKNTLYLQMNSLRAEDTAVYYCARERNYDYDDYYYAMDYWGQGTLVTVSS
VL: DIQMTQSPSSLSASVGDRVTITCKSSQSLLYRSNQKNYLAWYQQKPGKAPKLLIYWASTRESGVPSRFSGSGSGTDFTLTISSLQPEDFATYYCQQYYNYPRTFGQGTKVEIKR
notes: Direct CDR graft of murine 120 onto the human kappa I / VH subgroup III consensus, expressed as IgG; also called graft 120
Kd [1]: 260 nM | fold loss in binding affinity [2]: ~50 fold

B4: Original Thio 120V24 (antibody, V domains shown)
VH: EVQLVESGGGLVQPGGSLRLSCAVSGYSITSDYAWNWVRQAPGKGLEWVGYISNSGSTSYNPSLKSRFTISRDNSKNTLYLQMNSLRAEDTAVYYCARERNYDYDDYYYAMDYWGQGTLVTVSS
VL: DIQMTQSPSSLSASVGDRVTITCKSSQSLLYRSNQKNYLAWYQQKPGKAPKLLIYWASTRESGVPSRFSGSGSGTDFTLTISSLQPEDFATYYCQQYYNYPRTFGQGTKVEIK
modifications: One engineered free cysteine per chain pair, taken to lie in a constant region and so not in these letters. paragraph 175 calls the antibody a thio-LC variant (V205C Kabat). The site for lot PUR 12813 is not stated at the results.
notes: also called orig thio (PUR 12813); Thio Mab
Kd [13]: 1.4 nM | Kd [3]: 1.9 nM | Kd [14]: 2 nM | Kd [8]: 1.4 nM | Kd [15]: 1.1 nM | Kd [16]: 1.7 nM | Kd [17]: 1.1 nM | Kd [18]: 1.7 nM

B5: 120v.78 (antibody, name in Kabat numbering, V domains shown)
VH: EVQLVESGGGLVQPGGSLRLSCAASGYSITSDYAWNWVRQAPGKGLEWVGYISNSGSTSYNPSLKSRFTISRDNSKNTFYLQMNSLRAEDTAVYYCARERNYDYDDYYYAMDYWGQGTLVTVSS
VL: DIQMTQSPSSLSASVGDRVTITCKSSQSLLYRSNQKNYLAWYQQKPGKAPKLLIYWASTRESGVPSRFSGSGSGTDFTLTISSLQPEDFATYYCQQYYNYPRTFGQGTKVEIKR
Kd [1]: 36 nM

B7: 120 chimera (antibody, V domains shown)
VH: DVQVQESGPGLVKPSQSLSLTCTVTGYSITSDYAWNWIRQFPGNKLEWMGYISNSGSTSYNPSLKSRISITRDTSKNQFFLQLISVTTEDTATYYCARERNYDYDDYYYAMDYWGQGTTLTVSA
VL: DIVMSQSPSSLAVSVGEKVTMSCKSSQSLLYRSNQKNYLAWYQQKPGQSPKLLIYWASTRESGVPDRFTGSGSGTDFTLTISSVKAEDLAVYYCQQYYNYPRTFGGGTKVEIK
notes: If that entry holds a murine constant part, only its variable part applies here; also called chimera 120; chimeric 120 IgG
Kd [20]: 0.9 nM | Kd [21]: 9.9 nM | Kd [10]: 4.9 nM | sites per cell [10]: 253000 sites per cell | binding result [11]: binds | binding result [22]: no binding

The remaining lines, values ahead:

Kd [3]: 2.8 nM | Kd [4]: 2.3 nM | Kd [5]: 2.8 nM | Kd [6]: 1.9 nM | Kd [7]: 2.7 nM | Kd [8]: 2.1 nM
B2: anti-STEAP-1 antibody SGIV (antibody, name in Kabat numbering, V domains shown)
VH: EVQLVESGGGLVQPGGSLRLSCAVSGYSITSDYAWNWVRQAPGKGLEWVGYISNSGSTSYNPSLKSRFTISRDNSKNTLYLQMNSLRAEDTAVYYCARERNYDYDDYYYAMDYWGQGTLVTVSS
VL: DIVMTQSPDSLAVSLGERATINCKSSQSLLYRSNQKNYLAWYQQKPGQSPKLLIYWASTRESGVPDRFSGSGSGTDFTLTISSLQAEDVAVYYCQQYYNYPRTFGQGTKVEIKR
notes: Described as a revised light chain variant of the 120.v24 antibody, expressed as IgG; also called Simmons IV; SGIV variant

fold binding affinity relative to the SGIV variant [9]: ~1.5 fold | Kd [10]: 2.2 nM | sites per cell [10]: 264000 sites per cell | binding result [11]: binds | binding result [12]: no binding | fold improvement in Kd over the 120 chimera and the original murine M2-120.545 [1]: 2 fold
B3: humanized anti-STEAP-1 120v.24 (IgG) (antibody, name in Kabat numbering, V domains shown)
VH: EVQLVESGGGLVQPGGSLRLSCAVSGYSITSDYAWNWVRQAPGKGLEWVGYISNSGSTSYNPSLKSRFTISRDNSKNTLYLQMNSLRAEDTAVYYCARERNYDYDDYYYAMDYWGQGTLVTVSS
VL: DIQMTQSPSSLSASVGDRVTITCKSSQSLLYRSNQKNYLAWYQQKPGKAPKLLIYWASTRESGVPSRFSGSGSGTDFTLTISSLQPEDFATYYCQQYYNYPRTFGQGTKVEIKR
notes: also called humanized 120.v24; humanized version 24

binding result [19]: no binding | Kd [20]: 1.5 nM | Kd [21]: 17.5 nM | Kd [10]: 4.7 nM | sites per cell [10]: 301000 sites per cell | binding result [11]: binds
B6: murine anti-STEAP-1 MAb 120.545 (antibody, V domains shown)
VH: DVQVQESGPGLVKPSQSLSLTCTVTGYSITSDYAWNWIRQFPGNKLEWMGYISNSGSTSYNPSLKSRISITRDTSKNQFFLQLISVTTEDTATYYCARERNYDYDDYYYAMDYWGQGTTLTVSA
VL: DIVMSQSPSSLAVSVGEKVTMSCKSSQSLLYRSNQKNYLAWYQQKPGQSPKLLIYWASTRESGVPDRFTGSGSGTDFTLTISSVKAEDLAVYYCQQYYNYPRTFGGGTKVEIK
notes: also called murine 120
